Key:
[1] = molecular target: T1, RelA (Escherichia coli, full length, His-tagged) (Escherichia coli, UniProt P0AG20 1-744); experiment: cross-linking; 10 ul with 12.5 mM Na phosphate pH 7.2, 12.5 mM NaCl, 2.5% glycerol, 1 x 10^-3% glutaraldehyde, 4 ug of protein; 15 min on ice; SDS-PAGE and Western blot with anti-His antibody; conditions: both partners purified
T1 construct: RelA, (p)ppGpp synthetase of Escherichia coli, 84 kDa, 744 AA (NTD AAs 1-455, CTD AAs 405-744); also called WT RelA; WT-RelA; source: E. coli CF9467 (pQE30-relA), purified (Ni-NTA agarose); not shown: His6, N-terminal, kept
T1 sequence (looked up): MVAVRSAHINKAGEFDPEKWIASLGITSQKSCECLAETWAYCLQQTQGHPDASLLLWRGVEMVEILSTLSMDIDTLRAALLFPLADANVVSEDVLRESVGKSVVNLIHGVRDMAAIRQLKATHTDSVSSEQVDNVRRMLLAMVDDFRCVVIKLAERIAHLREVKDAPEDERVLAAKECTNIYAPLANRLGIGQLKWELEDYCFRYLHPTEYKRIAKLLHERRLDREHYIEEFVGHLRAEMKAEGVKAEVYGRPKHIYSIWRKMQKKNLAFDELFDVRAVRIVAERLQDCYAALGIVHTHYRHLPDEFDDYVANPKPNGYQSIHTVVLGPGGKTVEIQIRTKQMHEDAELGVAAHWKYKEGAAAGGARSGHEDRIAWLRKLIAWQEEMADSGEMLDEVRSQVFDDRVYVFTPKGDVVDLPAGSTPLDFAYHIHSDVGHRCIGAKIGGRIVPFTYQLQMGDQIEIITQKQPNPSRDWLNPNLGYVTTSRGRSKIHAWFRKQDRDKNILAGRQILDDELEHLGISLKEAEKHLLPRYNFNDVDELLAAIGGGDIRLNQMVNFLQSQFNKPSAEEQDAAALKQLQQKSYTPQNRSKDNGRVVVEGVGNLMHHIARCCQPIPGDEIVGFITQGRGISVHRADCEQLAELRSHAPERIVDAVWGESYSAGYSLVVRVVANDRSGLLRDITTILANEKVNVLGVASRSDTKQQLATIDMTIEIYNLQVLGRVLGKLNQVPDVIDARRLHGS

[2] = molecular target: the molecule itself; experiment: as above

binding result [1]: binds
B1: YG4 (fragment of the RelA C-terminal domain, AA 564-744, His-tagged) (domain or fragment, Escherichia coli, UniProt P0AG20 564-744, looked up)
chain: FNKPSAEEQDAAALKQLQQKSYTPQNRSKDNGRVVVEGVGNLMHHIARCCQPIPGDEIVGFITQGRGISVHRADCEQLAELRSHAPERIVDAVWGESYSAGYSLVVRVVANDRSGLLRDITTILANEKVNVLGVASRSDTKQQLATIDMTIEIYNLQVLGRVLGKLNQVPDVIDARRLHGS
notes: RelA of Escherichia coli, AA 564-744 (MW 21 kDa); holds the RIS domain (AA 585-660) and the ACT domain (AA 665-744); also called native YG4; WT-YG4; source: E. coli CF9467 (pYG4), purified (Ni-NTA agarose); not shown: His6, N-terminal, kept
binding result [2]: binds

— PMC7669825, “Escherichia coli RelA Regulation via Its C-Terminal Domain” (Frontiers in Microbiology, 2020)
